Laboratory results taken from the supplement of paper PMC9112550, “Optimization of the antimicrobial peptide Bac7 by deep mutational scanning” (BMC Biology, 2022).

tested on: Escherichia coli TOP10; assay: shrunken log2 fold change of peptide-encoding DNA abundance (4.5 h post-induction vs induction); higher = less antimicrobial activity (less host growth inhibition); details: time post-induction: 4.5 h; library: site-saturation at positions 5, 18, 19, 20
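Further: peptides expressed intracellularly from a pBAD plasmid library in pooled LB shake-flask culture, induced with 0.3% L-arabinose, DNA abundance read by NGS, three biological replicates, DESeq2 with apeglm shrinkage.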

Row | Sequence | shrunken log2 fold change
1 | RRIRRRPPRLPRPRPRPHFRPRP | -0.0205
2 | RRIRRRPPRLPRPRPRPAWWPRP | 1.01
3 | RRIRDRPPRLPRPRPRPSVRPRP | 0.0325
4 | RRIRERPPRLPRPRPRPSNSPRP | -0.0251
5 | RRIRKRPPRLPRPRPRPDSSPRP | 0.0149
6 | RRIRCRPPRLPRPRPRPHPYPRP | -0.296
7 | RRIRYRPPRLPRPRPRPEPTPRP | 0.0581
8 | RRIRARPPRLPRPRPRPVWCPRP | 0.293
9 | RRIRHRPPRLPRPRPRPFQGPRP | -0.0278
10 | RRIRLRPPRLPRPRPRPMHEPRP | -0.0688
11 | RRIRDRPPRLPRPRPRPPWNPRP | -0.0258
12 | RRIRVRPPRLPRPRPRPESIPRP | -0.149
13 | RRIRPRPPRLPRPRPRPQKCPRP | -0.0778
14 | RRIRMRPPRLPRPRPRPLEQPRP | 0.446
15 | RRIRERPPRLPRPRPRPTKVPRP | 0.0356
16 | RRIRKRPPRLPRPRPRPRHQPRP | 1.82
17 | RRIRCRPPRLPRPRPRPAYLPRP | -0.247
18 | RRIRKRPPRLPRPRPRPRCGPRP | 0.451
19 | RRIRRRPPRLPRPRPRPGFRPRP | 0.331
20 | RRIRFRPPRLPRPRPRPVPAPRP | 0.217
21 | RRIRNRPPRLPRPRPRPSAAPRP | 0.338
22 | RRIRVRPPRLPRPRPRPEIYPRP | -0.348

Row | Sequence | shrunken log2 fold change
23 | RRIRQRPPRLPRPRPRPQSIPRP | -0.0322
24 | RRIRNRPPRLPRPRPRPMSDPRP | -0.00992
25 | RRIRVRPPRLPRPRPRPRYTPRP | 0.0365
26 | RRIRSRPPRLPRPRPRPKGQPRP | 0.0791
27 | RRIRVRPPRLPRPRPRPDRAPRP | -0.0118
28 | RRIRNRPPRLPRPRPRPEREPRP | 0.256
29 | RRIRARPPRLPRPRPRPGFHPRP | 0.245
30 | RRIRPRPPRLPRPRPRPQFDPRP | -0.0475
31 | RRIRIRPPRLPRPRPRPPTYPRP | -0.427
32 | RRIRVRPPRLPRPRPRPFGCPRP | -0.19
33 | RRIRVRPPRLPRPRPRPWQNPRP | 0.013
34 | RRIRPRPPRLPRPRPRPAIPPRP | -0.0146
35 | RRIRVRPPRLPRPRPRPRDEPRP | 2.79
36 | RRIRGRPPRLPRPRPRPSRWPRP | 0.489
37 | RRIRNRPPRLPRPRPRPWRQPRP | -0.0337
38 | RRIRSRPPRLPRPRPRPDRQPRP | -0.0702
39 | RRIRVRPPRLPRPRPRPSFGPRP | -0.463
40 | RRIRNRPPRLPRPRPRPPCRPRP | -0.0266
41 | RRIRHRPPRLPRPRPRPGGAPRP | 0.311
42 | RRIRPRPPRLPRPRPRPSSVPRP | 0.0854
43 | RRIRLRPPRLPRPRPRPWVCPRP | -0.0462
44 | RRIRPRPPRLPRPRPRPNFAPRP | 0.445

Row | Sequence | shrunken log2 fold change
45 | RRIRMRPPRLPRPRPRPKTLPRP | 0.687
46 | RRIRWRPPRLPRPRPRPYWPPRP | -0.022
47 | RRIRSRPPRLPRPRPRPKEFPRP | -0.216
48 | RRIRYRPPRLPRPRPRPGKRPRP | -0.0167
49 | RRIRGRPPRLPRPRPRPSFRPRP | 0.0601
50 | RRIRWRPPRLPRPRPRPHRAPRP | -0.0058
51 | RRIRMRPPRLPRPRPRPPLRPRP | 0.852
52 | RRIRCRPPRLPRPRPRPYRPPRP | -0.352
53 | RRIRSRPPRLPRPRPRPYATPRP | -0.192
54 | RRIRKRPPRLPRPRPRPNYVPRP | -0.087
55 | RRIRARPPRLPRPRPRPSNYPRP | -0.901
56 | RRIRFRPPRLPRPRPRPRQDPRP | 0.253
57 | RRIRLRPPRLPRPRPRPILWPRP | -0.0294
58 | RRIRNRPPRLPRPRPRPGELPRP | -0.0397
59 | RRIRGRPPRLPRPRPRPYHDPRP | -0.0405
60 | RRIRYRPPRLPRPRPRPAIIPRP | -0.244
61 | RRIRWRPPRLPRPRPRPIFMPRP | -0.0259
62 | RRIRRRPPRLPRPRPRPLVVPRP | 0.312
63 | RRIRDRPPRLPRPRPRPVNFPRP | 0.0142
64 | RRIRERPPRLPRPRPRPKFAPRP | -0.139
65 | RRIRERPPRLPRPRPRPPPCPRP | 0.0452
66 | RRIRGRPPRLPRPRPRPNYNPRP | -0.262

Row | Sequence | shrunken log2 fold change
67 | RRIRFRPPRLPRPRPRPCPNPRP | 0.044
68 | RRIRTRPPRLPRPRPRPKEFPRP | -0.0177
69 | RRIRYRPPRLPRPRPRPLYPPRP | -0.929
70 | RRIRYRPPRLPRPRPRPQLEPRP | -0.418
71 | RRIRNRPPRLPRPRPRPQLLPRP | -0.0811
72 | RRIRPRPPRLPRPRPRPLMRPRP | 0.761
73 | RRIRARPPRLPRPRPRPCEGPRP | 0.0679
74 | RRIRWRPPRLPRPRPRPFWHPRP | -0.0195
75 | RRIRWRPPRLPRPRPRPIMPPRP | -0.0977
76 | RRIRVRPPRLPRPRPRPKARPRP | 0.295
77 | RRIRWRPPRLPRPRPRPNRTPRP | 0.121
78 | RRIRFRPPRLPRPRPRPKSQPRP | -0.0404
79 | RRIRQRPPRLPRPRPRPQVAPRP | -0.156
80 | RRIRFRPPRLPRPRPRPADHPRP | 0.00851
81 | RRIRHRPPRLPRPRPRPAIDPRP | 0.178
82 | RRIRPRPPRLPRPRPRPENAPRP | 0.0319
83 | RRIRWRPPRLPRPRPRPVGVPRP | 0.297
84 | RRIRMRPPRLPRPRPRPDYKPRP | 0.248
85 | RRIRPRPPRLPRPRPRPKYIPRP | -0.433
86 | RRIRGRPPRLPRPRPRPCYAPRP | 0.128
87 | RRIRQRPPRLPRPRPRPWHKPRP | -0.334
88 | RRIRGRPPRLPRPRPRPIWPPRP | 0.23

Row | Sequence | shrunken log2 fold change
89 | RRIRRRPPRLPRPRPRPIHEPRP | 0.086
90 | RRIRKRPPRLPRPRPRPQGEPRP | -0.000844
91 | RRIRNRPPRLPRPRPRPRYEPRP | -0.27
92 | RRIRDRPPRLPRPRPRPKQAPRP | 0.0366
93 | RRIRHRPPRLPRPRPRPTTDPRP | -0.136
94 | RRIRWRPPRLPRPRPRPEVDPRP | 1.87
95 | RRIRARPPRLPRPRPRPYTKPRP | -0.156
96 | RRIRNRPPRLPRPRPRPFLMPRP | -0.0732
97 | RRIRHRPPRLPRPRPRPTVSPRP | -0.0706
98 | RRIRNRPPRLPRPRPRPSDNPRP | -0.494
99 | RRIRNRPPRLPRPRPRPTGCPRP | -0.0633
100 | RRIRVRPPRLPRPRPRPMDIPRP | -0.308
101 | RRIRDRPPRLPRPRPRPHEPPRP | 0.211
102 | RRIRGRPPRLPRPRPRPVCMPRP | 0.406
103 | RRIRRRPPRLPRPRPRPPSNPRP | 0.0633
104 | RRIRHRPPRLPRPRPRPEPIPRP | 0.021
105 | RRIRCRPPRLPRPRPRPSDLPRP | -0.0943
106 | RRIRNRPPRLPRPRPRPIECPRP | 0.0138
107 | RRIRERPPRLPRPRPRPKEPPRP | 0.131
108 | RRIRSRPPRLPRPRPRPVNHPRP | -0.462
109 | RRIRERPPRLPRPRPRPHCNPRP | -1.07
